Measurements: patent US20200147215A1, “DRUG CONJUGATES WITH PHOTOCLEAVABLE SOLUBILITY MODULATORS” (priority 2017, published 2020)
Read-outs that look alike come from different tables or passages of the source.

Columns and labels:
[1] = Solubility of non-polar-tag insulin conjugates vs insulin (shaken with PBS pH 7.2, supernatant analyzed)
Protocol: (§1) Diazo was allowed to react for 24 hours. Reaction progress may be monitored on HPLC with a C18 column.
It was hypothesized solubility would be further lowered by the Val-Val-Val peptide being allowed to pack more efficiently than in the Val-Pro-Ile peptide.

[2] = stated in description, no experiment; cited from earlier work
[3] = Quantitative solubility of G2PEA-insulin and insulin in buffer at pH 7.2 and pH 5.4
[4] = Isoelectric point (IEF gel); format: physicochemical; settings: FIG. 33
[5] = Photolysis of G2PEA-insulin dissolved in DMSO, analyzed by gel; format: physicochemical; settings: over the irradiation time period, FIG. 35
Description: The lower band is insulin.

[6] = Photolysis release of insulin from conjugate vs irradiation time; format: physicochemical
Protocol: as §1

Substance	Solubility mM ([1]; Table 3)	Solubility mg/ml ([1]; Table 3)	Solubility mM ([1]; Table 5)	Solubility mg/ml ([1]; Table 5)	isoelectric point [2]	Solubility ([3]; Table 7, pH 7.2 buffer)	Solubility ([3]; Table 8, pH 5.4)	isoelectric point [4]	conversion to insulin upon irradiation [5]	photolysis release rate constant k ([6]; FIG. 7, insulin released into solution v. irradiation time)	photolysis release rate constant k ([6]; fit B=A0(1−exp(−kt)), FIG. 19)
insulin [reference compound]	0.708 mM	4.11 mg/mL	0.708 mM	4.11 mg/mL	~5.4	1053.3 ± 158.1 µM	17.1 ± 2.1 µM				
G2PEA-insulin drug conjugate: drug conjugate of insulin and glutamic acid condensed with two 1-(2-Aminoethyl)pyrrolidine moieties (G2PEA), photocleavable link								~7	all of the G2PEA insulin is consumed, and insulin is released		
CD-insulin: drug conjugate of insulin and a cyclododecyl amine non-polar moiety joined by a DMNPE-type photocleavable group	0.009 mM	0.06 mg/mL	0.009 mM	0.06 mg/mL						0.154 min-	0.154 min⁻¹
